In US20240117011A1:

What was measured:
[1] = target: full-length spike B.1.617.2 (SARS-CoV-2) (UniProt P0DTC2); test: cell-based or functional assay
[2] = target: spike of variant P.1 v1 on pseudovirus; test: cell-based or functional assay

Row | Substance | neutralization, fold reduction in activity [1] | neutralization IC50 [2] | pseudotyped virus neutralization [1]
1 | REGN10987 (antibody) | 4 fold |  | 
2 | CB6 (antibody) |  | > 10 µg/mL | 
3 | LY-CoV555 (antibody) |  | > 10 µg/mL | > 10000 ng/mL
